{"source": "patent US20210252159A1", "about": "“CONJUGATES OF CARTILAGE-HOMING PEPTIDES” (priority 2018, published 2021)", "key": {"[1]": {"assay": "Comparison of joint retention time among radiolabeled peptides (QWBA, knee and IVD)", "format": "in vivo", "design": "Peptide Signal Retention in Knee / Peptide Signal Retention in IVD: unit not given here", "conditions": "for joint retention: SEQ ID NO: 105 57-60 nmol, SEQ ID NO: 103 130 nmol, SEQ ID NO: 184 150 nmol", "description": "Frozen carcasses were allowed to off gas hexane overnight at −20° and then embedded in chilled 2% carboxymethylcellulose (Sigma Aldrich) and sectioned sagittally at a thickness of 40 μm on an H/I Bright 8250 Cryostat (Hacker Instruments). Radioactive control guides were drilled into each block to verify even cutting depth along the length of the section. The radioactive guide consisted of ^14C-Glycine (American Radiolabeled Chemicals, “ARC”) at 0.5 uCi/ml in 0.5% BSA (Sigma Aldrich) in PBS. Sections were collected onto 4-inch wide tape (Scotch 821, ULINE) at 2-4 depths to sample approximately 30 tissues with particular focus on the knees and spine. Collected sections were freeze dried in the cryostat for 48-72 hours then mounted on sturdy paper and covered with a single protective layer of cellophane (Reynolds Food Service Film). Mounted sections were exposed to phosphor imager plates (Raytest) along with a radioactive standard Curve (1465-PL, ARC) for 7-days, scanned on a Raytest CR-35 at “25 μm sensitive” setting.\nQuantification of the radioactivity detected in WBA samples was evaluated by measuring the pixel density/mm^2 (“SI”: Signal Intensity/Area−background) using AIDA Image Analyzer v 5.1 Whole Body Autoradiography Professional software (Raytest). Regions of interest (ROIs) were drawn manually around the entire visible tissue, comparing the sectioned sample to the autoradiogram. For quantification, all visible knee or IVD (intervertebral disc) tissues for one rodent across all collected sections were measured and averaged together to generate one knee or IVD value per animal. Typically were sampled 1-2 knee values (from femoral and tibial cartilage) per 1-2 sections per animal and 3-10 IVD per 1-2 sections per animal. To collect quantified values for other tissues, ROIs were drawn around blood in the heart ventricle, spinotrapezius muscle, the liver, or the kidney (including cortex and medulla) in all sections in which the tissue was observed and then averaged to yield one value per tissue per animal.\nData were presented as nmol of compound per gram of tissue. The commercial standard strips co-exposed with each WBA sample set were calibrated so that a known amount of radioactive counts per minute (CPM) per gram of tissue, determined by liquid scintillation counting (LSC), corresponded to the measured WBA SI at 11 standard strip concentration data points. The regression line of the log 10 transformed WBA signal intensity plotted against the log 10 transformed CPM/g gave a linear range of 1×10^5 to 7.5×10^7 WBA SI, corresponding to 6.3 nCi/g to 3.3 μCi/g. The log 10 concentration of radioactivity in each tissue (CPM/g) was interpolated from the standard curve, converted to linear values, and translated from CPM/g to uCi/g by interpolation against an LSC CPM to μCi standard curve. Uptake (nmol of compound/g of tissue) was determined by dividing the μCi/g tissue by the μCi/nmol specific activity of the peptide.\nPeptide(SEQ ID NO: 105) was dosed at 57-60 nmol. Peptide(SEQ ID NO: 103) was dosed at 130 nmol. Peptide(SEQ ID NO: 184) was dosed at 150 nmol. […] It should be noted that detection of retention is based on an assay that detects radiolabeling of the N-terminus of each of the tested conjugates, thus decrease in signal over time may be due not only to peptide diffusion back out of the cartilage but also aminopeptidase-mediated removal of N-terminal amino acid, general peptide cleavage, or other mechanisms. Results as measured by QWBA methods described herein are shown in Tables 6 and 7 below and FIG. 11."}, "[2]": {"assay": "Biodistribution and pharmacokinetics of ^14C-labeled peptides in knee and IVD (QWBA)", "format": "in vivo, athymic nude mice", "conditions": "for levels in knee and IVD compared with peptide(SEQ ID NO: 105): After 24 hours", "description": "Synthetic peptides were radiolabeled by reductive methylation of the N-terminus with ^14C formaldehyde. 2 mice per time point were injected IV with 12.4 μCi of peptide (approximately 100 nmol or 18 mg/kg) and then euthanized at 0.08, 0.5, 1, 3, 8, 24, 48, 72, or 96 hours, followed by quantitative whole body autoradiography analysis.\nTo that end, the biodistribution pharmacokinetics of ^14C-labeled peptides ^14C-peptide(SEQ ID NO: 105), ^14C-peptide(SEQ ID NO: 103), and ^14C-peptide(SEQ ID NO: 184) to the knee (FIG. 19A and FIG. 19B) and intraverterbral discs (IVD, FIG. 19C and FIG. 19D) was assessed in mice (FIG. 19). Tissue levels were quantified by whole body autoradiography of peptides that had been radiolabeled by reductive methylation of the N-terminus. ^14C-peptide(SEQ ID NO: 105) and ^14C-peptide(SEQ ID NO: 103) both peaked in knee and IVD around 1-3 hours whereas ^14C-peptide(SEQ ID NO: 184) peaked later at 8 hours. […] All peptides still had observable signal at the last time point of 96 hours. […] As the peptide levels are based on the radiolabel attached to the N-terminus of the peptide, the decrease in signal with time may be due to aminopeptidase activity on the N-terminus of the peptides (which would not be relevant on PDC conjugates, where the drug linker is attached to the N-terminus), due to peptide diffusion back out of the cartilage, or due to general peptide backbone cleavage. For example, higher sustained levels of peptide in the cartilage may be desirable if drug cleavage has a slower pharmacokinetics, and if the peptide-drug conjugate is not saturating peptide binding sites in the cartilage when using repeat dosing. As another example, an earlier tmax in cartilage may be desirable to minimize premature cleavage of a conjugated drug in serum."}}, "note": "No end group written: not given here."}
{"sequence": "GSSERDCIRHLQRCRENRDCCSRRCSRRGTNPERRCR (not fully specified (N-terminus, bridges); cysteine pairing not given here) [peptide(SEQ ID NO: 103), cartilage-homing cystine-dense peptide; biodistribution with form ^14C-methylated on the N-terminus]", "values": [{"measurement": "Peptide Signal Retention in IVD", "setting": "[1]; 0.08 Hours", "value": 59.15}, {"measurement": "Peptide Signal Retention in Knee", "setting": "[1]; 0.08 Hours", "value": 79.20}, {"measurement": "Peptide Signal Retention in IVD", "setting": "[1]; 0.5 Hours", "value": 76.62}, {"measurement": "Peptide Signal Retention in Knee", "setting": "[1]; 0.5 Hours", "value": 110.57}, {"measurement": "Peptide Signal Retention in IVD", "setting": "[1]; 1 Hours", "value": 100.00}, {"measurement": "Peptide Signal Retention in Knee", "setting": "[1]; 1 Hours", "value": 100.00}, {"measurement": "Peptide Signal Retention in IVD", "setting": "[1]; 3 Hours", "value": 113.18}, {"measurement": "Peptide Signal Retention in Knee", "setting": "[1]; 3 Hours", "value": 103.00}, {"measurement": "Peptide Signal Retention in IVD", "setting": "[1]; 8 Hours", "value": 107.52}, {"measurement": "Peptide Signal Retention in Knee", "setting": "[1]; 8 Hours", "value": 98.94}, {"measurement": "Peptide Signal Retention in IVD", "setting": "[1]; 24 Hours", "value": 50.75}, {"measurement": "Peptide Signal Retention in Knee", "setting": "[1]; 24 Hours", "value": 44.60}, {"measurement": "Peptide Signal Retention in IVD", "setting": "[1]; 48 Hours", "value": 34.86}, {"measurement": "Peptide Signal Retention in Knee", "setting": "[1]; 48 Hours", "value": 29.30}, {"measurement": "joint retention", "setting": "[1]", "value": "Longer joint retention"}, {"measurement": "levels in knee and IVD compared with peptide(SEQ ID NO: 105)", "setting": "[2]", "value": "substantially higher levels"}]}
{"sequence": "GSGDCLPHLRRCRENNDCCSRRCRRRGANPERRCR (not fully specified (N-terminus, bridges); cysteine pairing not given here) [peptide(SEQ ID NO: 184), cartilage-homing cystine-dense peptide; biodistribution with form ^14C-methylated on the N-terminus]", "values": [{"measurement": "Peptide Signal Retention in IVD", "setting": "[1]; 0.08 Hours", "value": 53.02}, {"measurement": "Peptide Signal Retention in Knee", "setting": "[1]; 0.08 Hours", "value": 96.94}, {"measurement": "Peptide Signal Retention in IVD", "setting": "[1]; 0.5 Hours", "value": 49.70}, {"measurement": "Peptide Signal Retention in Knee", "setting": "[1]; 0.5 Hours", "value": 69.85}, {"measurement": "Peptide Signal Retention in IVD", "setting": "[1]; 1 Hours", "value": 100.00}, {"measurement": "Peptide Signal Retention in Knee", "setting": "[1]; 1 Hours", "value": 100.00}, {"measurement": "Peptide Signal Retention in IVD", "setting": "[1]; 3 Hours", "value": 238.11}, {"measurement": "Peptide Signal Retention in Knee", "setting": "[1]; 3 Hours", "value": 158.43}, {"measurement": "Peptide Signal Retention in IVD", "setting": "[1]; 8 Hours", "value": 119.97}, {"measurement": "Peptide Signal Retention in Knee", "setting": "[1]; 8 Hours", "value": 111.32}, {"measurement": "Peptide Signal Retention in IVD", "setting": "[1]; 24 Hours", "value": 64.00}, {"measurement": "Peptide Signal Retention in Knee", "setting": "[1]; 24 Hours", "value": 57.81}, {"measurement": "Peptide Signal Retention in IVD", "setting": "[1]; 48 Hours", "value": 49.99}, {"measurement": "Peptide Signal Retention in Knee", "setting": "[1]; 48 Hours", "value": 50.44}, {"measurement": "Peptide Signal Retention in IVD", "setting": "[1]; 72 Hours", "value": 52.20}, {"measurement": "Peptide Signal Retention in Knee", "setting": "[1]; 72 Hours", "value": 28.30}, {"measurement": "Peptide Signal Retention in IVD", "setting": "[1]; 96 Hours", "value": 36.54}, {"measurement": "Peptide Signal Retention in Knee", "setting": "[1]; 96 Hours", "value": 11.84}, {"measurement": "joint retention", "setting": "[1]", "value": "Longer joint retention"}, {"measurement": "levels in knee and IVD compared with peptide(SEQ ID NO: 105)", "setting": "[2]", "value": "substantially higher levels"}, {"measurement": "time of peak in knee and IVD", "setting": "[2]; mice, approximately 100 nmol IV, QWBA", "value": 8, "unit": "h"}]}
